Reference: patent publication US20100068208A1, “Degranulation inhibitor” (priority 2005, published 2010)

Assays:
[1] = target: TGR12-GFP (fused protein of human TGR12 and GFP, encoded by the DNA of SEQ ID NO: 31), stably expressed on CHO cells (CHO-TGR12 of Example 1) (human) (UniProt Q96LB1); experiment: cell-based or functional assay
human TGR12 (untagged) = target: T1, human TGR12 (untagged) (human, UniProt Q96LB1 1-330); experiment: cell-based or functional assay
T1 sequence: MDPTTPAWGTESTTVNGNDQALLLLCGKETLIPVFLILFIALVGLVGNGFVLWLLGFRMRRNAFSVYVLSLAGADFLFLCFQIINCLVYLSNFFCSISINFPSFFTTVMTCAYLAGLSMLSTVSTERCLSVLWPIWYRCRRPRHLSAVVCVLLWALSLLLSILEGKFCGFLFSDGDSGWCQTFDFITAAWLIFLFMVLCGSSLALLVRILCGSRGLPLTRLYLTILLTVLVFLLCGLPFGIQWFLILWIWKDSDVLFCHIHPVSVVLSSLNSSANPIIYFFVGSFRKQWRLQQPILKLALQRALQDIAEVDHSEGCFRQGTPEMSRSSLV

TGR12 = type: cell-based, human; conditions: CHO-TGR12, 1 μM
Method: CHO/dhfr^− cells (hereinafter CHO) were incubated in α-MEM (Invitrogen) supplemented with 10% fetal calf serum. After a termination codon in the TGR12-encoding nucleotide sequence was removed, a nucleotide sequence ligated with the nucleotide sequence encoding GFP (Wako Pure Chemical) [hereinafter briefly referred to as TGR12-GFP (DNA having the nucleotide sequence represented by SEQ ID NO: 31)] was incorporated into vector plasmid pAKKO-111H (the same vector plasmid as pAKKO1.11H described in Biochim. Biophys. Acta, 1219, 251-259 (1994)) for animal cell expression, and the vector plasmid was stably expressed to establish TGR12-GFP-expressed CHO cell line (hereinafter CHO-TGR12). CHO-TGR12 was incubated in nucleic acid-free α-MEM medium (Invitrogen) containing 10% dialyzed fetal calf serum.
CHO-TGR12 was plated in a 96-well plate at a density of 30,000 cells/well. After incubation overnight, the medium was discarded and 100 μL/well of assay buffer [Hank's Balanced Salt Solution (Invitrogen), 20 mM HEPES (Dojin Chemical Laboratory) and 2.5 mM Probenecid (Sigma)] containing 4 μM Fluo3-AM (Dojin Chemical Laboratory) was added, which was then allowed to stand for an hour at 37° C. […] After the cells were washed with assay buffer, fluorescence reflecting changes in intracellular calcium levels was assayed on FLIPR (Molecular Device). Ten seconds after initiation of the assay, 50 μL of a sample was added at a rate of 50 μL/second. Fluorescence measurement was taken every 1 second during the first 60 seconds and then every 6 seconds during the next 120 seconds; the highest fluorescence intensity over a 3 minute period was taken as the maximum activity under the stimulation condition, representing the mean value of 3 wells. The EC50 values were determined using Graphpad PRISM 4 (Graphpad Software).

RBL-2H3 = experiment: Intracellular calcium increasing activity in RBL2H3 (FLIPR); type: cell-based; conditions: RBL2H3, 1 μM
Method: (§1) RBL-2H3 (hereinafter RBL2H3) was incubated in α-MEM (Invitrogen) supplemented with 10% fetal calf serum. Vector plasmid pcDNA3.1 for animal cell expression, in which the nucleotide sequence containing the initiation codon to the termination codon of human TGR12 (DNA having the nucleotide sequence represented by SEQ ID NO: 32) was incorporated, was stably expressed in RBL-2H3 to establish human TGR12-expressed RBL-2H3 cell line (hereinafter RBL2H3-TGR12). RBL2H3-TGR12 was incubated in α-MEM (Invitrogen) supplemented with 10% fetal calf serum and 200 μg/mL of Geneticin.
(§2) The intracellular calcium increasing activity was assayed as follows. RBL2H3 and RBL2H3-TGR12 were plated in a 96-well plate at a density of 40,000 cells/well and incubated overnight. The medium was then discarded and 100 μL/well of 4 μM Fluo3-AM (Dojin Kagaku)-containing assay buffer [Hank's Balanced Salt Solution (Invitrogen), 20 mM HEPES (Dojin Kagaku) and 2.5 mM Probenecid (Sigma)] was added. The mixture was allowed to stand for an hour at 37° C. Various TGR12 (Peptide Institute, Inc.) or calcium ionophore A23187 (Wako Pure Chemical) was diluted in 0.05% CHAPS-containing assay buffer. After the cells were washed with the assay buffer, fluorescence emitted with changes in intracellular calcium was measured using FLIPR (Molecular Device). A sample, 50 μL, was added at a rate of 50 μL/sec. 10 seconds after initiation of the assay. Fluorescence was measured every 1 second during the first 60 seconds and every 6 seconds during the next 120 seconds. The highest fluorescence intensity during 3 minutes was made the maximum activity under the stimulation conditions, which was taken as an average of 3 wells. The EC50 values were calculated using Graphpad PRISM 4 (Graphpad Software).

human TGR12 = target: T2, human TGR12 (Homo sapiens, UniProt Q96LB1); experiment: Intracellular calcium increasing activity in RBL2H3-TGR12 (FLIPR); type: cell-based; conditions: RBL2H3-TGR12, 1 μM
T2 construct: expressed in transfected cells
T2 sequence (Q96LB1 1-330): T1 sequence
Method: as §1, §2

[2] = test system: human mast cell line LAD 2; experiment: Effect of NK1 receptor antagonists on substance P- or A23187-induced degranulation of LAD 2; type: cell-based
Method: Subsequently, Tyrode's buffer containing 50 μL of NK1 antagonist GR-82334 (Sigma, Inc.) in various concentrations or L-703606 (Sigma, Inc.) was added and incubation was continued at 37° C. for 5 minutes. […] Next, 0.2 M glycine/NaCO3 (pH 10.7) was added in a volume of 0.1-fold of the reaction solution to stop the reaction. The activity was then assayed using Fusion-α (Perkin-Elmer). […] The inhibition activity by the NK1 receptor antagonist was expressed as the percentage of the β-hexosaminidase activity when the NK1 antagonist was added in various concentrations, based on the β-hexosaminidase activity when no NK1 antagonist was added.

Compound “human PAMP12 (proadrenomedullin N-terminal 20 peptide (9-20)) (from UniProt P35318 30-41)” has an EC50 in the calcium increasing effect on CHO-TGR12 [1] of 98 nM, a maximum activity in the calcium increasing effect (FLIPR), CHO-TGR12, at 0.3 nM (fluorescence intensity) [1] of 255 and a maximum activity in the calcium increasing effect (FLIPR), CHO-TGR12, at 3 nM (fluorescence intensity) [1] of 1620. It also gave a maximum activity in the calcium increasing effect (FLIPR), CHO-TGR12, at 30 nM (fluorescence intensity) [1] of 22300, a maximum activity in the calcium increasing effect (FLIPR), CHO-TGR12, at 300 nM (fluorescence intensity) [1] of 24100 and a maximum activity in the calcium increasing effect (FLIPR), CHO-TGR12, at 3000 nM (fluorescence intensity) [1] of 23700. It also gave an EC50 in the degranulation on LAD 2 (human TGR12 (untagged)) of 13 nM, a degranulation of LAD 2 (beta-hexosaminidase release, % of total) at 3 nM (human TGR12 (untagged)) of 6.3% and a degranulation of LAD 2 (beta-hexosaminidase release, % of total) at 10 nM (human TGR12 (untagged)) of 30.7%. The degranulation of LAD 2 (beta-hexosaminidase release, % of total) at 30 nM (human TGR12 (untagged)) was 52.1%, the degranulation of LAD 2 (beta-hexosaminidase release, % of total) at 100 nM (human TGR12 (untagged)) was 65.2% and the degranulation of LAD 2 (beta-hexosaminidase release, % of total) at 300 nM (human TGR12 (untagged)) was 67.7%. It also gave a degranulation of LAD 2 (beta-hexosaminidase release, % of total) at 1 µM (human TGR12 (untagged)) of 69.3%, a maximum activity in the calcium increasing effect (FLIPR), RBL2H3-TGR12, at 1 nM (fluorescence intensity) (human TGR12 (untagged)) of 41 and a maximum activity in the calcium increasing effect (FLIPR), RBL2H3-TGR12, at 10 nM (fluorescence intensity) (human TGR12 (untagged)) of 2090. It also gave a maximum activity in the calcium increasing effect (FLIPR), RBL2H3-TGR12, at 100 nM (fluorescence intensity) (human TGR12 (untagged)) of 11100, a maximum activity in the calcium increasing effect (FLIPR), RBL2H3-TGR12, at 1 µM (fluorescence intensity) (human TGR12 (untagged)) of 12000 and a maximum activity in the calcium increasing effect (FLIPR), RBL2H3-TGR12, at 10 µM (fluorescence intensity) (human TGR12 (untagged)) of 12300.
For `CNc1ccc2oc(C[C@H]3O[C@@]4(CC[C@H]3C)O[C@H]([C@H](C)C(=O)c3ccc[nH]3)[C@H](C)C[C@H]4C)nc2c1C(=O)O` [A23187], the “maximum activity in the calcium increasing effect” value (TGR12) was 27379, the “maximum activity in the calcium increasing effect” value (RBL-2H3) was 25338 and the “maximum activity in the calcium increasing effect” value (human TGR12) was 25624.
With `Ic1ccccc1CN[C@@H]1C2CCN(CC2)[C@@H]1C(c1ccccc1)c1ccccc1` [L-703606] the “degranulation, % of β-hexosaminidase activity without NK1 antagonist” value ([2]; A23187 stimulation 0.3 μM, antagonist 100 nM) was 98.4%, the “degranulation, % of β-hexosaminidase activity without NK1 antagonist” value ([2]; A23187 stimulation 0.3 μM, antagonist 300 nM) was 97.2% and the “degranulation, % of β-hexosaminidase activity without NK1 antagonist” value ([2]; A23187 stimulation 0.3 μM, antagonist 1 μM) was 97.4%. For the same compound, the “degranulation, % of β-hexosaminidase activity without NK1 antagonist” value ([2]; A23187 stimulation 0.3 μM, antagonist 3 μM) was 91.5%, the “degranulation, % of β-hexosaminidase activity without NK1 antagonist” value ([2]; A23187 stimulation 0.3 μM, antagonist 10 μM) was 37.1% and the “degranulation, % of β-hexosaminidase activity without NK1 antagonist” value ([2]; A23187 stimulation 0.3 μM, antagonist 30 μM) was 2.4%. For the same compound, the “inhibition of the degranulation by the substance P and A23187 stimulation” value ([2]; concentration range of 3 μM) was “did not inhibit”, the “inhibition of the degranulation by the substance P and A23187 stimulation” value ([2]; concentration range of 10 μM to 30 μM, non-specifically to TGR12 and NK1 receptor) was “inhibited” and the “degranulation, % of β-hexosaminidase activity without NK1 antagonist” value ([2]; substance P stimulation 0.3 μM, antagonist 100 nM) was 101.1%. The “degranulation, % of β-hexosaminidase activity without NK1 antagonist” value ([2]; substance P stimulation 0.3 μM, antagonist 300 nM) was 97.9%, the “degranulation, % of β-hexosaminidase activity without NK1 antagonist” value ([2]; substance P stimulation 0.3 μM, antagonist 1 μM) was 98.8% and the “degranulation, % of β-hexosaminidase activity without NK1 antagonist” value ([2]; substance P stimulation 0.3 μM, antagonist 3 μM) was 100.0%. For the same compound, the “degranulation, % of β-hexosaminidase activity without NK1 antagonist” value ([2]; substance P stimulation 0.3 μM, antagonist 10 μM) was 39.4% and the “degranulation, % of β-hexosaminidase activity without NK1 antagonist” value ([2]; substance P stimulation 0.3 μM, antagonist 30 μM) was 3.2%.
